Consider ten variants from IntAct's records for PubMed 35512704.

First the molecules themselves.
B1: Mothers against decapentaplegic homolog 4 (Homo sapiens), Q13485 (parent)
chain: MDNMSITNTPTSNDACLSIVHSLMCHRQGGESETFAKRAIESLVKKLKEKKDELDSLITAITTNGAHPSKCVTIQRTLDGRLQVAGRKGFPHVIYARLWRWPDLHKNELKHVKYCQYAFDLKCDSVCVNPYHYERVVSPGIDLSGLTLQSNAPSSMMVKDEYVHDFEGQPSLSTEGHSIQTIQHPPSNRASTETYSTPALLAPSESNATSTANFPNIPVASTSQPASILGGSHSEGLLQIASGPQPGQQQNGFTGQPATYHHNSTTTWTGSRTAPYTPNLPHHQNGHLQHHPPMPPHPGHYWPVHNELAFQPPISNHPAPEYWCSIAYFEMDVQVGETFKVPSSCPIVTVDGYVDPSGGDRFCLGQLSNVHRTEAIERARLHIGKGVQLECKGEGDVWVRCLSDHAVFVQSYYLDREAGRAPGDAVHKIYPSAYIKVFDLRQCHRQMQQQAATAQAAAAAQAAAVAGNIPGPGSVGGIAPAISLSAAAGIGVDDLRRLCILRMSFVKGWGPDYPRQSIKETPCWIEIHLHRALQLLDEVLHTMPIADPQPLD
partner: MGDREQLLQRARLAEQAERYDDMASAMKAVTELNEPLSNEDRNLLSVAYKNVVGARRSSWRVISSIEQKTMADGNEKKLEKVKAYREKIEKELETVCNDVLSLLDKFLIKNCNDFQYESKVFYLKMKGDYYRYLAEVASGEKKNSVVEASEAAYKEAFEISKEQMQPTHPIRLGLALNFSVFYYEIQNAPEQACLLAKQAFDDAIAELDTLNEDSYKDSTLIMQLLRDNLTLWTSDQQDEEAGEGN
B2: Mothers against decapentaplegic homolog 4 (Homo sapiens), Q13485 (parent)
chain: B1 chain
partner: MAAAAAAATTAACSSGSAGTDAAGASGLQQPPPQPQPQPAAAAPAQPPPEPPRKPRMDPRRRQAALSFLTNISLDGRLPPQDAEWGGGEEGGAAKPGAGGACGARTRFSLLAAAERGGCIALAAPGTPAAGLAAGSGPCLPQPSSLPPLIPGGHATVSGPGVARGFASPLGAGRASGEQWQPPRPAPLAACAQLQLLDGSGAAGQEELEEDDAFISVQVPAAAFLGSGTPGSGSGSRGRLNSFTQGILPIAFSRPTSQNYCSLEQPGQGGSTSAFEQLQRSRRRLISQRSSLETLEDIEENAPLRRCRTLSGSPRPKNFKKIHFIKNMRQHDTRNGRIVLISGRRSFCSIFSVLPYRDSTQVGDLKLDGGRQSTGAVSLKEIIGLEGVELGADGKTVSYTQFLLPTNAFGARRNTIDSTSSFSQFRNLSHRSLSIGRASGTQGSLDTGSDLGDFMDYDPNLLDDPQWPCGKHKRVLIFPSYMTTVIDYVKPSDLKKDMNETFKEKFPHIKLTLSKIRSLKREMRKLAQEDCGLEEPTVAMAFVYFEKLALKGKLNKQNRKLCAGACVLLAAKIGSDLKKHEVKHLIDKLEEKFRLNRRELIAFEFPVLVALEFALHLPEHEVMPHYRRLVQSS
B3: Mothers against decapentaplegic homolog 4 (Homo sapiens), Q13485 (parent)
chain: B1 chain
partner: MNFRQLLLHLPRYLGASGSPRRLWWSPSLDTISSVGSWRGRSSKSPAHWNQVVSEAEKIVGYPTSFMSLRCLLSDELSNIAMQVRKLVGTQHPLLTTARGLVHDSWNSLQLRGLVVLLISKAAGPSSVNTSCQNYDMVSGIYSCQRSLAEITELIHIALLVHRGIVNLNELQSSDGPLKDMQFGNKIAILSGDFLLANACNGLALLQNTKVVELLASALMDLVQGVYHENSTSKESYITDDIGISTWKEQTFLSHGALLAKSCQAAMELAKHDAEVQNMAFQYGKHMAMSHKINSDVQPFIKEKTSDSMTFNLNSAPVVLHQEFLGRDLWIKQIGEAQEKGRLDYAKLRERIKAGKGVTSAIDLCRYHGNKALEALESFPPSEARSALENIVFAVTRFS
B4: Mothers against decapentaplegic homolog 4 (Homo sapiens), Q13485 (parent)
chain: B1 chain
partner: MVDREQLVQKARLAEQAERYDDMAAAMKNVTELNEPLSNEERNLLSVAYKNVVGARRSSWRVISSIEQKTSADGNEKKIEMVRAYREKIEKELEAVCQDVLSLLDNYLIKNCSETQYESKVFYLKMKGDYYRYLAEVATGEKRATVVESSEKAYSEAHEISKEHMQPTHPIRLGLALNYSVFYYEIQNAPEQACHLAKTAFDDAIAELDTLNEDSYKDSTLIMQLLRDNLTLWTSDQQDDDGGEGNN
B5: Mothers against decapentaplegic homolog 4 (Homo sapiens), Q13485 (parent)
chain: B1 chain
partner: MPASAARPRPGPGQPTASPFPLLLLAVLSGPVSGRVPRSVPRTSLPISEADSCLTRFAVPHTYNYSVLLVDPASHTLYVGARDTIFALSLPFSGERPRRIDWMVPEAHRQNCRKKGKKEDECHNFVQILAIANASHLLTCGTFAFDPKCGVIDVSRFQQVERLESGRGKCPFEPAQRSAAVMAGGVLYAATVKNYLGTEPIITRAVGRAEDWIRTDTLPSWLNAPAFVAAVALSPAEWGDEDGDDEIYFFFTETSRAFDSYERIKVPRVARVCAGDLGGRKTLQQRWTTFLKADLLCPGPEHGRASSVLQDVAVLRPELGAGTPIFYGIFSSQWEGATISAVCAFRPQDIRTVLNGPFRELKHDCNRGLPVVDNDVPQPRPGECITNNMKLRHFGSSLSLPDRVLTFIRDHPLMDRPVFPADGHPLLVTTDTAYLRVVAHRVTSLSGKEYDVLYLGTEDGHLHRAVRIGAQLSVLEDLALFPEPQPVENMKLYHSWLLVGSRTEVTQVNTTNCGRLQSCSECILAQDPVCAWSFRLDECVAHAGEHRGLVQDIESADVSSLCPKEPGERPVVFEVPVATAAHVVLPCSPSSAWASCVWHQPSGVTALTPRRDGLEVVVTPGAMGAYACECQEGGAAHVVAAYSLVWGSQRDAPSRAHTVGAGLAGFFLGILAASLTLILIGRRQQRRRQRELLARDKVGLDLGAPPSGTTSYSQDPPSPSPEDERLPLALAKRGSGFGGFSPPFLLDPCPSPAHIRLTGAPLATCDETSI

The variants in the first test derive from B1. Conditions: with 1433f_human YWHAH.
On to G386D, for which the “effect of a mutation on the interaction” value is on record as “with no effect”.

The variants in the next test derive from B1. Conditions: with 1433f_human YWHAH. The source holds these as a separate data set.
Regarding D351H, the “effect of a mutation on the interaction” value is “with no effect”.

A further test covers variants of B2. Conditions: with cabl1_human CABLES1, Q8TDN4.
On to G386D, for which the “effect of a mutation on the interaction” value was “with no effect”.

The variants in a further test derive from B3. Conditions: with dlp1_human PDSS2, Q86YH6.
Consider G386D, for which the “effect of a mutation on the interaction” value is listed as “with no effect”.

Another test covers variants of B3. Conditions: with dlp1_human PDSS2, Q86YH6. This is another data set of the same source.
On to R361H, for which the “effect of a mutation on the interaction” value was “with no effect”.

Variants of B4 are the subject of the next test. Conditions: with 1433g_human YWHAG.
With R361C, the “effect of a mutation on the interaction” value is “with no effect”.

Variants of B4 are the subject of the next test. Conditions: with 1433g_human YWHAG. This is another data set of the same source.
For the variant D351H, the “effect of a mutation on the interaction” value is “with no effect”.

Another test covers variants of B5. Conditions: with sem4f_human SEMA4F.
For G386D, the “effect of a mutation on the interaction” value is reported as “with no effect”.

The variants in a further test derive from B5. Conditions: with sem4f_human SEMA4F. This is another data set of the same source.
For the variant G386D, the “effect of a mutation on the interaction” value was “causing an interaction”.

Variants of B5 are the subject of a further test. Conditions: with sem4f_human SEMA4F. The source holds these as a separate data set.
Regarding R361C, the “effect of a mutation on the interaction” value is on record as “with no effect”.

In another test the parent is B5. Conditions: with sem4f_human SEMA4F. This is another data set of the same source.
For R361H, the “effect of a mutation on the interaction” value was “with no effect”.
